Test results reported in PMC4944944, “The Calponin Family Member CHDP-1 Interacts with Rac/CED-10 to Promote Cell Protrusions” (PLoS Genetics, 2016).

Target: T1, Flag-tagged full-length CHDP-1 (C. elegans, UniProt P91027 1-338)
T1 construct: CHDP-1 (C10G11.7), single type III calponin homology domain protein of C. elegans; fragment limits show 338 residues; Cloned into a modified pFLAG-CMV-2 vector; In the self-association co-IP the second copy carried Myc (modified pcDNA3.1/myc-HIS(-) vector) in place of Flag; also called FLAG-CHDP-1; C10G11.7; source: HEK293T, transfected, in lysate
T1 sequence (looked up): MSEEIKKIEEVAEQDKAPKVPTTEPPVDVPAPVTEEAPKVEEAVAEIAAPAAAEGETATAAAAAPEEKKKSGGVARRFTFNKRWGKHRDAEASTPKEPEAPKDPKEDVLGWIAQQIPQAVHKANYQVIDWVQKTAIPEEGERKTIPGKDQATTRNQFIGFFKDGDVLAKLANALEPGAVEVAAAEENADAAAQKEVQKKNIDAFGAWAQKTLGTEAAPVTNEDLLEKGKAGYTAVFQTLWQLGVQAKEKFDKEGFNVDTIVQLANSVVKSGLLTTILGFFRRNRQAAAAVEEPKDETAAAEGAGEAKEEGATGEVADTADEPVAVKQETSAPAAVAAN
Test: co-IP; Flag-CHDP-1 and Myc-CED-10 expressed in HEK293T cells, affinity purified, mixed together, then co-immunoprecipitated with Flag or Myc antibodies
Conditions: both partners purified

B1: Myc-tagged CED-10 (natural protein)
chain: not shown
notes: CED-10, Rac1 homolog (Rho family small GTPase) of C. elegans; cDNA from Dr. Yuji Kohara; Cloned into a modified pcDNA3.1/myc-HIS(-) vector; also called Rac1/CED-10; worm Rac1 homolog; source: HEK293T, transfected, in lysate
B1: binds.
